# Paper PMC8750077
# Experiments:
# [1] = biological target: HPV18-E6 (4C-4S) version of E6 fused with His-tag (human papillomavirus type 18 (HPV18)) (UniProt P06463)
# [2] = biological target: HPV18-E6 (4C-4S) version of E6 fused with His-tag (human papillomavirus type 18 (HPV18)) (UniProt P06463); remark: listed apart in the source
# UniProt P06463, sequence (P06463 whole entry, the tested form may be a part): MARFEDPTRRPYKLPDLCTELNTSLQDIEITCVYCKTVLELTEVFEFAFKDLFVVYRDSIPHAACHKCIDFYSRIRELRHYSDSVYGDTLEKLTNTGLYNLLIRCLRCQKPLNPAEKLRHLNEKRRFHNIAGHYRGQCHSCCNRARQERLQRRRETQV
substance,measurement,setting,value
untagged USP46 (from UniProt P62068 1-366) (enzyme),deubiquitinase activity on Ub-AMC of the E6:USP46 complex purified on Ni-NTA and concentrated (USP46-UAF1 complex in the same assay: 0.83 FU/min),[1],0.78 FU/min
same,"deubiquitinase activity of recombinant USP46 (singly purified His-USP46, 70 nM) on the ubiquitin substrate after simple mixing with recombinant HPV-E6 (4 uM); USP46 alone 0.39 FU/min",[2],0.58 FU/min
